The target in data set [1] is T1, TM4SF5 (Homo sapiens, UniProt O14894).
T1 construct: Strep-TM4SF5 WT (pulled down from HEK293FT) or HA-TM4SF5 (immunoprecipitated from Huh7KO)
T1 sequence (O14894 1-197): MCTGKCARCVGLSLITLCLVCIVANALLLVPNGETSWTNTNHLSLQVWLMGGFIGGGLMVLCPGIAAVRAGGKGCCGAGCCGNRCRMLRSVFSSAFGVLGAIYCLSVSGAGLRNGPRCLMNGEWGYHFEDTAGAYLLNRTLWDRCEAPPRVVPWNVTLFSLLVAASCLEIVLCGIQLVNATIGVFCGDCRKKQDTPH
Kind of data set: […]-radioligand binding to pulled-down/immunoprecipitated TM4SF5, blocked by cold ST-5-002; EC50 by titration (about […] or […] for the differently tagged proteins).

A short description of data set [2]: immunoblot of SLAMF7 in co-transfected SNU761 cells. The conditions noted are these: glycan lost; control: Strep-TM4SF5 WT.
A short description of data set [3]: confocal immunofluorescence colocalisation. The following applies: glycan lost; control: FLAG-SLAMF7 WT.
The nature of data set [4]: immunoblot of SLAMF7 level with TM4SF5 expression. The following applies: glycan lost; control: WT SLAMF7, TM4SF5 co-expressed.

`Cc1ccc(C(=O)Nc2ccc(-c3cc(-c4ccc(O)cc4)no3)cc2)cc1` [ST-5-002, N-(4-(3-(4-hydroxyphenyl)isoxazol-5-yl)phenyl)-4-methylbenzamide]: the EC50 (as a rule, the concentration at which the effect is half-maximal) in data set [1] is roughly 850 nM.

B1: TM4SF5: Gly− (protein)
parent chain: MCTGKCARCVGLSLITLCLVCIVANALLLVPNGETSWTNTNHLSLQVWLMGGFIGGGLMVLCPGIAAVRAGGKGCCGAGCCGNRCRMLRSVFSSAFGVLGAIYCLSVSGAGLRNGPRCLMNGEWGYHFEDTAGAYLLNRTLWDRCEAPPRVVPWNVTLFSLLVAASCLEIVLCGIQLVNATIGVFCGDCRKKQDTPH
On to B1, for which the “other: downregulation of SLAMF7 level” value in data set [2] was “abolishes”.

B2: SLAMF7: NQ#6 (protein)
parent chain: MAGSPTCLTLIYILWQLTGSAASGPVKELVGSVGGAVTFPLKSKVKQVDSIVWTFNTTPLVTIQPEGGTIIVTQNRNRERVDFPDGGYSLKLSKLKKNDSGIYYVGIYSSSLQQPSTQEYVLHVYEHLSKPKVTMGLQSNKNGTCVTNLTCCMEHGEEDVIYTWKALGQAANESHNGSILPISWRWGESDMTFICVARNPVSRNFSSPILARKLCEGAADDPDSSMVLLCLLLVPLLLSLFVLGLFLWFLKRERQEEYIEEKKRVDICRETPNICPHSGENTEYDTIPHTNRTILKEDPANTVYSTVEIPKKMENPHSLLTMPDTPRLFAYENVI
For the molecule B2, in data set [3], the localisation_or_trafficking entry was “abolishes”.

B3: SLAMF7: NQ#1456 (protein)
parent chain: MAGSPTCLTLIYILWQLTGSAASGPVKELVGSVGGAVTFPLKSKVKQVDSIVWTFNTTPLVTIQPEGGTIIVTQNRNRERVDFPDGGYSLKLSKLKKNDSGIYYVGIYSSSLQQPSTQEYVLHVYEHLSKPKVTMGLQSNKNGTCVTNLTCCMEHGEEDVIYTWKALGQAANESHNGSILPISWRWGESDMTFICVARNPVSRNFSSPILARKLCEGAADDPDSSMVLLCLLLVPLLLSLFVLGLFLWFLKRERQEEYIEEKKRVDICRETPNICPHSGENTEYDTIPHTNRTILKEDPANTVYSTVEIPKKMENPHSLLTMPDTPRLFAYENVI
In the case of B3, the expression_or_secretion result in data set [4] is “increases”.

B4: SLAMF7: NQ#456 (protein)
parent chain: MAGSPTCLTLIYILWQLTGSAASGPVKELVGSVGGAVTFPLKSKVKQVDSIVWTFNTTPLVTIQPEGGTIIVTQNRNRERVDFPDGGYSLKLSKLKKNDSGIYYVGIYSSSLQQPSTQEYVLHVYEHLSKPKVTMGLQSNKNGTCVTNLTCCMEHGEEDVIYTWKALGQAANESHNGSILPISWRWGESDMTFICVARNPVSRNFSSPILARKLCEGAADDPDSSMVLLCLLLVPLLLSLFVLGLFLWFLKRERQEEYIEEKKRVDICRETPNICPHSGENTEYDTIPHTNRTILKEDPANTVYSTVEIPKKMENPHSLLTMPDTPRLFAYENVI
In the case of B4, in data set [3], the localisation_or_trafficking entry is reported as “abolishes”. In addition, in data set [4], the expression_or_secretion entry is “increases”.

B5: SLAMF7: NQ#2 (protein)
parent chain: MAGSPTCLTLIYILWQLTGSAASGPVKELVGSVGGAVTFPLKSKVKQVDSIVWTFNTTPLVTIQPEGGTIIVTQNRNRERVDFPDGGYSLKLSKLKKNDSGIYYVGIYSSSLQQPSTQEYVLHVYEHLSKPKVTMGLQSNKNGTCVTNLTCCMEHGEEDVIYTWKALGQAANESHNGSILPISWRWGESDMTFICVARNPVSRNFSSPILARKLCEGAADDPDSSMVLLCLLLVPLLLSLFVLGLFLWFLKRERQEEYIEEKKRVDICRETPNICPHSGENTEYDTIPHTNRTILKEDPANTVYSTVEIPKKMENPHSLLTMPDTPRLFAYENVI
On to B5, for which the expression_or_secretion result in data set [4] is given as “no change”.

B6: SLAMF7: NQ#123 (protein)
parent chain: MAGSPTCLTLIYILWQLTGSAASGPVKELVGSVGGAVTFPLKSKVKQVDSIVWTFNTTPLVTIQPEGGTIIVTQNRNRERVDFPDGGYSLKLSKLKKNDSGIYYVGIYSSSLQQPSTQEYVLHVYEHLSKPKVTMGLQSNKNGTCVTNLTCCMEHGEEDVIYTWKALGQAANESHNGSILPISWRWGESDMTFICVARNPVSRNFSSPILARKLCEGAADDPDSSMVLLCLLLVPLLLSLFVLGLFLWFLKRERQEEYIEEKKRVDICRETPNICPHSGENTEYDTIPHTNRTILKEDPANTVYSTVEIPKKMENPHSLLTMPDTPRLFAYENVI
Take B6: the localisation_or_trafficking result in data set [3] is on record as “no change”. Further, the expression_or_secretion result in data set [4] is “no change”.

B7: SLAMF7: NQ#2456 (protein)
parent chain: MAGSPTCLTLIYILWQLTGSAASGPVKELVGSVGGAVTFPLKSKVKQVDSIVWTFNTTPLVTIQPEGGTIIVTQNRNRERVDFPDGGYSLKLSKLKKNDSGIYYVGIYSSSLQQPSTQEYVLHVYEHLSKPKVTMGLQSNKNGTCVTNLTCCMEHGEEDVIYTWKALGQAANESHNGSILPISWRWGESDMTFICVARNPVSRNFSSPILARKLCEGAADDPDSSMVLLCLLLVPLLLSLFVLGLFLWFLKRERQEEYIEEKKRVDICRETPNICPHSGENTEYDTIPHTNRTILKEDPANTVYSTVEIPKKMENPHSLLTMPDTPRLFAYENVI
For B7, in data set [4], the expression_or_secretion entry is “increases”.

B8: SLAMF7: NQ#23456 (protein)
parent chain: MAGSPTCLTLIYILWQLTGSAASGPVKELVGSVGGAVTFPLKSKVKQVDSIVWTFNTTPLVTIQPEGGTIIVTQNRNRERVDFPDGGYSLKLSKLKKNDSGIYYVGIYSSSLQQPSTQEYVLHVYEHLSKPKVTMGLQSNKNGTCVTNLTCCMEHGEEDVIYTWKALGQAANESHNGSILPISWRWGESDMTFICVARNPVSRNFSSPILARKLCEGAADDPDSSMVLLCLLLVPLLLSLFVLGLFLWFLKRERQEEYIEEKKRVDICRETPNICPHSGENTEYDTIPHTNRTILKEDPANTVYSTVEIPKKMENPHSLLTMPDTPRLFAYENVI
For B8, the expression_or_secretion result in data set [4] is reported as “increases”.

B9: SLAMF7: NQ#3 (protein)
parent chain: MAGSPTCLTLIYILWQLTGSAASGPVKELVGSVGGAVTFPLKSKVKQVDSIVWTFNTTPLVTIQPEGGTIIVTQNRNRERVDFPDGGYSLKLSKLKKNDSGIYYVGIYSSSLQQPSTQEYVLHVYEHLSKPKVTMGLQSNKNGTCVTNLTCCMEHGEEDVIYTWKALGQAANESHNGSILPISWRWGESDMTFICVARNPVSRNFSSPILARKLCEGAADDPDSSMVLLCLLLVPLLLSLFVLGLFLWFLKRERQEEYIEEKKRVDICRETPNICPHSGENTEYDTIPHTNRTILKEDPANTVYSTVEIPKKMENPHSLLTMPDTPRLFAYENVI
B9: the expression_or_secretion entry in data set [4] is reported as “no change”.

B10: SLAMF7: NQ#1 (protein)
parent chain: MAGSPTCLTLIYILWQLTGSAASGPVKELVGSVGGAVTFPLKSKVKQVDSIVWTFNTTPLVTIQPEGGTIIVTQNRNRERVDFPDGGYSLKLSKLKKNDSGIYYVGIYSSSLQQPSTQEYVLHVYEHLSKPKVTMGLQSNKNGTCVTNLTCCMEHGEEDVIYTWKALGQAANESHNGSILPISWRWGESDMTFICVARNPVSRNFSSPILARKLCEGAADDPDSSMVLLCLLLVPLLLSLFVLGLFLWFLKRERQEEYIEEKKRVDICRETPNICPHSGENTEYDTIPHTNRTILKEDPANTVYSTVEIPKKMENPHSLLTMPDTPRLFAYENVI
As to B10, the expression_or_secretion entry in data set [4] was “no change”.
